Measured values: IntAct's records for PubMed 19587294

B1: Tetraspanin-12 (Homo sapiens), O95859 (parent)
chain: MAREDSVKCLRCLLYALNLLFWLMSISVLAVSAWMRDYLNNVLTLTAETRVEEAVILTYFPVVHPVMIAVCCFLIIVGMLGYCGTVKRNLLLLAWYFGSLLVIFCVELACGVWTYEQELMVPVQWSDMVTLKARMTNYGLPRYRWLTHAWNFFQREFKCCGVVYFTDWLEMTEMDWPPDSCCVREFPGCSKQAHQEDLSDLYQEGCGKKMYSFLRGTKQLQVLRFLGISIGVTQILAMILTITLLWALYYDRREPGTDQMMSLKNDNSQHLSCPSVELLKPSLSRIFEHTSMANSFNTHFEMEEL

Variants of: B1
Settings: with ada10_human ADAM10, O14672
ada10_human ADAM10, O14672, sequence (O14672 whole entry): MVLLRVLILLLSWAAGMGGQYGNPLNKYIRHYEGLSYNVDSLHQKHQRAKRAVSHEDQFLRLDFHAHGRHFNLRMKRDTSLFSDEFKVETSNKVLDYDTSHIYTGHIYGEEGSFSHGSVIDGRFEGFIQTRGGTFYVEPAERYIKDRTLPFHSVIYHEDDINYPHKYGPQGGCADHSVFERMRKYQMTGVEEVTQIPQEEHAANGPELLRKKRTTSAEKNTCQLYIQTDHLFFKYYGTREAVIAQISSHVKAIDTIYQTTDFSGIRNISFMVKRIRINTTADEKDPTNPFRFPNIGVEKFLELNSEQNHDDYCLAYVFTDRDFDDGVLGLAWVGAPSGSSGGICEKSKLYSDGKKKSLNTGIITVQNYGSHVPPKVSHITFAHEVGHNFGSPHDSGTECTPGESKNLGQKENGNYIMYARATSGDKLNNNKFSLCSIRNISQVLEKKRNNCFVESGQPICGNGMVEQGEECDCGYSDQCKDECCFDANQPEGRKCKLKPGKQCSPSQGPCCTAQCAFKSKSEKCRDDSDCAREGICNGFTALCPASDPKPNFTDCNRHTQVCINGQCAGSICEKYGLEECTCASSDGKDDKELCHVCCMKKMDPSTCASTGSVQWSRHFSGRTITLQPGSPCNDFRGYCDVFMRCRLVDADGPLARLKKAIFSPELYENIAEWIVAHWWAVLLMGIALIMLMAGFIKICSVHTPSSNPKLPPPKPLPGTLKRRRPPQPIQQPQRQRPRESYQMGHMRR
With C9S;C12S;C83S the “effect of a mutation on the interaction” value was “disrupting interaction strength”.
With R88E the “effect of a mutation on the interaction” value was “decreasing interaction strength”.
